For assay [1], the target named is human CTLA-4, wild type, on CHO-K1 cells (human, UniProt P16410). Nature of the assay: flow cytometry on cells. (In general: A flow cytometer gives signals particle by particle.)
Assay [2] has as its target mouse CTLA-4, on CHO-K1 cells (Mus musculus, UniProt P09793). Nature of the assay: ELISA.
Assay [3] addresses CTLA-4 antigen (in solution, for HDX-MS and cross-linking) (human, UniProt P16410). In words: HDX-MS.

Chain of CTLA-4 antigen (in solution, for HDX-MS and cross-linking) (P16410 36-223): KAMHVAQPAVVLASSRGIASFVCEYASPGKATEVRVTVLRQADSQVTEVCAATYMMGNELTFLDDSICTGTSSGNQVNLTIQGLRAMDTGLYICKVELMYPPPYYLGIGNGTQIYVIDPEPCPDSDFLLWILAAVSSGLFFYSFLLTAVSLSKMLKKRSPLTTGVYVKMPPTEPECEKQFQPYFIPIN
Chain of human CTLA-4, wild type, on CHO-K1 cells (P16410 36-223): as above

B1: tremelimumab (antibody, V domains shown)
VH: QVQLVESGGGVVQPGRSLRLSCAASGFTFSSYGMHWVRQAPGKGLEWVAVIWYDGSNKYYADSVKGRFTISRDNSKNTLYLQMNSLRAEDTAVYYCARDPRGATLYYYYYGMDVWGQGTTVTVSS
VL: DIQMTQSPSSLSASVGDRVTITCRASQSINSYLDWYQQKPGKAPKLLIYAASSLQSGVPSRFSGSGSGTDFTLTISSLQPEDFATYYCQQYYSTPFTFGPGTKVEIK
With B1, the binding result in assay [1] is reported as “binds”; in assay [2], “no binding”; in assay [3], “binds”.
